This experiment addresses LecB-biotin (Pseudomonas aeruginosa lectin LecB, biotinylated) (Pseudomonas aeruginosa) (UniProt Q9HYN5). Nature of the experiment: pull-down.

With “β1-integrin (glycosylated, endogenous in MDCK cells) (receptor)”, the percent of total β1-integrin extracted by LecB-biotin was determined as 75%.
